Biological target: PvLDH (lactate dehydrogenase) (Plasmodium vivax, UniProt Q4PRK9 1-316)
Assay: flow cytometry (Ni-NTA beads)
Settings: protein: recombinant; tags: His6; chain copies: 4

B1: N15 unmodified (ssDNA)
DNA: CACTCACGTCAGTGACATGCAGGTCCTCTCGCCCCCAGTGACTTGCGTGGTCAGAAATTTCGCACCAC
Kd: ~208 nM
